Measurements taken from patent publication US7977082B2, “Isomaltulose synthases, polynucleotides encoding them and uses therefor” (The University of Queensland of St. Lucia, priority 2001, dated 2011).

Tests used:
[1] = target: T1, Klebsiella sp. 14S sucrose isomerase (SI), carboxy-terminal 6×His tag (SEQ ID NO: 52) (Klebsiella planticola, UniProt Q6XKX6); experiment: Sucrose isomerase kinetics, purified SI from Klebsiella sp. 14S (isomaltulose production), with or without glucose/fructose; type: biochemical; settings: sucrose, isomaltulose production, pH 6.0, 30° C., Lineweaver and Burk
T1 sequence (Q6XKX6 29-598): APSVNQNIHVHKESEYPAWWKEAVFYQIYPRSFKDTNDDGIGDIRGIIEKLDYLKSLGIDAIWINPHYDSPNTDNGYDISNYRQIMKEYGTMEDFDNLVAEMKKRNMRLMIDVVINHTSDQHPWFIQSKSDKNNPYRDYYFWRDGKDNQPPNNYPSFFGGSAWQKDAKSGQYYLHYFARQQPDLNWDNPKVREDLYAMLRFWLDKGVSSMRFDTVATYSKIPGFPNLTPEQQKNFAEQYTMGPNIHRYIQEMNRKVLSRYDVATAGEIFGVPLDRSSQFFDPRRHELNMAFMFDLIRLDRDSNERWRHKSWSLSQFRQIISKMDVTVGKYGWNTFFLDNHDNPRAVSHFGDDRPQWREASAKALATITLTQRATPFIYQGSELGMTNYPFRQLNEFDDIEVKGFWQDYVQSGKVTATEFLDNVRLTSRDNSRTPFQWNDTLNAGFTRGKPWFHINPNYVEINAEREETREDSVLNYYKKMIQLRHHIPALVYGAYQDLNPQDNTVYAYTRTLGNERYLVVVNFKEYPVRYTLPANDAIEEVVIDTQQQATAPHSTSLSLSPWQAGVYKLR
Method: The pET24b vector introduces a carboxy-terminal 6×His tag (SEQ ID NO: 52) on expressed proteins, which were purified by adsorption to Ni-NTA agarose (Qiagen) and elution with 25 mM NaH2PO4, 150 mM NaCl, 125 mM imidazole buffer (pH8.0) following the manufacturer's instructions. For storage, the eluted solution was diluted with 50% glycerol. The purity of SI proteins was tested by SDS-PAGE as described below. A batch procedure using Ni-NTA agarose in suspension yielded predominantly (80-95%) SI with a background of several other protein bands. A procedure using Ni-NTA agarose in adsorption columns yielded preparations containing a single protein band. […]
Enzyme activities were measured by incubating 5 μl of purified enzyme with 95 μL of sucrose solution at a final concentration of 584 mM in 0.1 M citrate/phosphate buffer (pH 6.0) at 30° C. Sugar profiles in the reaction mix were analysed at intervals by CE as described previously. […]
(§1) SI activity was measured by incubating the purified enzyme with different sucrose concentrations (3, 6, 15, 58, 146, 292, 584, 877, 1169 and 1461 mM) under standard assay conditions, and also with addition of glucose, fructose or both to a final concentration of 277 mM. Data were analyzed according to the method of Lineweaver and Burk (Voet and Voet, 1995) to calculate Km and Vmax values.

[2] = target: T2, Pantoea dispersa 68J sucrose isomerase (SI), mature, SEQ ID NO: 10, carboxy-terminal 6×His tag (SEQ ID NO: 52) (Pantoea dispersa, UniProt Q6XNK6); experiment: Sucrose isomerase kinetics, purified SI from P. dispersa 68J (isomaltulose production), with or without glucose/fructose; type: biochemical; settings: sucrose, isomaltulose production
T2 sequence (Q6XNK6 34-598): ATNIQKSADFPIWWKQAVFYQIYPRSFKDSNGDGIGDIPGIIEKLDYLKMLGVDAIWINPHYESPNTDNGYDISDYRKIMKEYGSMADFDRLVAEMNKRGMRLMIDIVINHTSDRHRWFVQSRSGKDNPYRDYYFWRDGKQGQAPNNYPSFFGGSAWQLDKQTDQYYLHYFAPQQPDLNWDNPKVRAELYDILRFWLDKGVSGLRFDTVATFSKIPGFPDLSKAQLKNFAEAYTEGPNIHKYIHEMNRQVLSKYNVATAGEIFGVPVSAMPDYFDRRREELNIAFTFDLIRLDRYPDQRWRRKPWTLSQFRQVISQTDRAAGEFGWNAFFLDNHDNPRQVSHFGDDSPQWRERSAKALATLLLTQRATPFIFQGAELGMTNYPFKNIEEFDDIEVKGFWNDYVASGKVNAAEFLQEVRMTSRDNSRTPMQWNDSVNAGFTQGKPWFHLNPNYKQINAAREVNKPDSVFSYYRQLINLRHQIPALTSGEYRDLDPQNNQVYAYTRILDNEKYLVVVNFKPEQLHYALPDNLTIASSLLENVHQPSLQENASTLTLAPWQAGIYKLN
Method: (§2) The pET24b vector introduces a carboxy-terminal 6×His tag (SEQ ID NO: 52) on expressed proteins, which were purified by adsorption to Ni-NTA agarose (Qiagen) and elution with 25 mM NaH2PO4, 150 mM NaCl, 125 mM imidazole buffer (pH8.0) following the manufacturer's instructions. For storage, the eluted solution was diluted with 50% glycerol. The purity of SI proteins was tested by SDS-PAGE as described below. A batch procedure using Ni-NTA agarose in suspension yielded predominantly (80-95%) SI with a background of several other protein bands. A procedure using Ni-NTA agarose in adsorption columns yielded preparations containing a single protein band. Unless otherwise specified, this is the form of the purified SI enzymes used for biochemical characterisation.
(§3) Enzyme activities were measured by incubating 5 μl of purified enzyme with 95 μL of sucrose solution at a final concentration of 584 mM in 0.1 M citrate/phosphate buffer (pH 6.0) at 30° C. Sugar profiles in the reaction mix were analysed at intervals by CE as described previously. One unit (U) of SI activity was defined as the amount of enzyme that could release 1 μmol of isomaltulose in one minute at the initial stage of the reaction.
as §1

[3] = test system: Klebsiella sp. sucrose isomerase; settings: isomaltulose product; Park et al. 1996; cited from earlier work
[4] = test system: Serratia plymuthica ATCC 15928 sucrose isomerase; settings: isomaltulose product; Véronèse & Perlot 1999; cited from earlier work
[5] = test system: Pseudomonas mesoacidophila MX-45 sucrose isomerase; settings: trehalulose product; Nagai et al. 1994; cited from earlier work
[6] = test system: Klebsiella sp. LX3 sucrose isomerase; settings: isomaltulose product; Zhang et al. 2002; cited from earlier work
[7] = Conversion of sucrose into isomaltulose by E. coli cells expressing cloned SI genes; type: cell-based
Method: The three sucrose isomerase genes in the pCR®2.1 vector were cut and cloned into pGEM®-3Zf(+) then into pET 24b vector (Novagen) for expression in E. coli BL21(DE3) strain. Five mL LB medium with 50 μg/mL kanamycin was used for the BL21(DE3) cell culture. Fifteen cultures per construct were set up initially. Cells were grown at 37° C. at 225 rpm shaking. Six to ten cultures per construct, with OD600 1.000±0.005, were selected for further induction. After 0.5 mL was sampled from each culture, IPTG was added to the culture to a final concentration of 1.0 mM. Incubation of the cultures was continued for another 3 hours. The induced cultures only with OD600 1.750±0.005 were further selected for sucrose conversion analysis and protein measurement, allowing analysis of three replicate cultures per construct. From each of the selected IPTG-induced cultures, 1.5 mL was sampled for protein quantification, 0.5 mL for protein SDS-PAGE, 1.0 mL for quantification of conversion efficiency from sucrose into isomaltulose.
The 1.0 mL culture was centrifuged, then resuspended in citrate/phosphate (pH 6.0) buffered 50% sucrose solution and assayed for isomaltulose conversion by CE analysis as described above. Conversion ratio was calculated by sucrose peak area and isomaltulose peak area normalised against standards of known concentration, using the software of Beckman P/ACE 5000 Series C.E. System.
Fifteen cultures per construct were set up in 5 mL LB medium (Sambrook and Russell, 2001) with 50 μg/mL kanamycin in a 30 mL universal tube. Cells were grown at 37° C. at 225 rpm shaking. Six to ten cultures per construct, with OD600=1.00 were selected for further induction. After 0.5 mL was sampled from each culture, IPTG was added to a final concentration of 0.5 mM and incubation of the cultures was continued for another 3 h at 28° C. This allowed selection of three replicate cultures per construct with the same OD600 for sucrose conversion analysis and protein measurement. From each of the selected cultures, 1.5 mL was sampled for protein quantification, 0.5 mL for protein SDS-PAGE, and 1.0 mL for quantification of conversion efficiency from sucrose into isomaltulose. For SI protein purification experiment, the culture volume was scaled up to 25 mL in a 250 mL flask.
The 1.0 mL culture sample was centrifuged at 12,000×g for 1 min, then resuspended in 5 mL of 0.1 M citrate/phosphate (pH 6.0) buffered 50% sucrose solution and incubated for 4 h at 37° C. with 225 rpm shaking. Conversion ratio was calculated from sucrose and isomaltulose peak areas normalised against standards of known concentration, using a Beckman P/ACE 5000 CE as described previously herein.

[8] = Glucose and fructose tested as substrates of the purified enzyme; type: biochemical; settings: 30° C., 30 minutes, pH 3.0 to 7.0
Method: (§4) Isomaltulase activity of the purified enzyme was investigated by incubation with 50 mM isomaltulose at 30° C. for 30 minutes at each of pH 3.0, 4.0, 5.0, 6.0 and 7.0. Glucose and fructose were tested as substrates under the same reaction conditions.

[9] = Assay of isolated (purified) SI enzyme activity; type: biochemical
Method: as §2, §3
The enzymes were incubated with sucrose at different pH ranging from 2.0 to 10.6. The solution of pH 2.0 was buffered in 0.2 M KCl; pH 3.0 to pH 9.0 were in 0.1 M citrate/phosphate buffer; pH 10.0 to pH 10.6 were in 0.2 M glycine buffer. The effect of temperature from 10° C. to 70° C. was measured at pH 6.0. […]

[10] = Storage stability of purified SI proteins; type: physicochemical
Method: The purified fresh enzymes from SDS-PAGE had specific activities for isomaltulose production of: E. rhapontici: 35 U mg^−1 protein, Klebsiella sp.: 95 U mg^−1 protein and P. dispersa: 632 U mg^−1 protein. The purified SI from E. rhapontici lost function during overnight storage at −20° C. in elution buffer diluted with 50% glycerol. In contrast, the purified enzymes from 14S or P. dispersa retained 100% of the fresh enzyme efficiency for isomaltulose production after 6-month storage at −20° C., or 60% after 15-day storage at room temperature in the same buffer. Because of instability, the E. rhapontici SI was not characterised further in purified form. Cheetham et al., (1984) found substantial differences between E. rhapontici strains for SI stability in immobilized cells, and the enzyme from strain NCPPB 1578 was stable in purified form (Cheetham, 1984).
as §2

[11] = Isomaltulase activity of the purified enzyme; type: biochemical; settings: 50 mM isomaltulose, 30° C., 30 minutes, pH 3.0 to 7.0
Method: as §4

[12] = E. coli, pET 24b, same expression conditions

OC[C@H]1O[C@@](CO)(O[C@H]2O[C@H](CO)[C@@H](O)[C@H](O)[C@H]2O)[C@@H](O)[C@@H]1O [sucrose, α-D-glucosyl-1,2-D-fructose]
Vmax [1]: 100 U mg^−1 | Vmax [2]: 637 μmoles isomaltulose/mg protein/min | Vmax ([2]; pH 6.0, 30° C., Lineweaver and Burk): 637 U mg^−1 | Vmax [3]: 110 U mg^−1 | Km [4]: 65 mM | Vmax [4]: 120 U mg^−1 | Km [5]: 19.2 mM | Km [6]: 54.6 mM

B1: P. dispersa SI: sucrose isomerase cloned from bacterial isolate 68J, SEQ ID NO: 8, mature polypeptide SEQ ID NO: 10 (protein)
chain: MFLNGFKTVIALTMASSFYLAASPLTKPSTPIAATNIQKSADFPIWWKQAVFYQIYPRSFKDSNGDGIGDIPGIIEKLDYLKMLGVDAIWINPHYESPNTDNGYDISDYRKIMKEYGSMADFDRLVAEMNKRGMRLMIDIVINHTSDRHRWFVQSRSGKDNPYRDYYFWRDGKQGQAPNNYPSFFGGSAWQLDKQTDQYYLHYFAPQQPDLNWDNPKVRAELYDILRFWLDKGVSGLRFDTVATFSKIPGFPDLSKAQLKNFAEAYTEGPNIHKYIHEMNRQVLSKYNVATAGEIFGVPVSAMPDYFDRRREELNIAFTFDLIRLDRYPDQRWRRKPWTLSQFRQVISQTDRAAGEFGWNAFFLDNHDNPRQVSHFGDDSPQWRERSAKALATLLLTQRATPFIFQGAELGMTNYPFKNIEEFDDIEVKGFWNDYVASGKVNAAEFLQEVRMTSRDNSRTPMQWNDSVNAGFTQGKPWFHLNPNYKQINAARXVNKPDSVFSYYRQLINLRHQIPALTSGEYRDLDPQNNQVYAYTRILDNEKYLVVVNFKPEQLHYALPDNLTIASSLLENVHQPSLQENASTLTLAPWQAGIYKLN
modifications: not fully specified; X: residue not identified in the source
conversion efficiency from sucrose to isomaltulose, times that of the 14S (Klebsiella sp.) gene product/clone [7, 12]: 18 times | conversion efficiency from sucrose to isomaltulose, times that of the Erwinia rhapontici gene product/clone [7, 12]: 10 times | proportions of glucose and fructose generated ([7]; compared with 14S (Klebsiella sp.) and Erwinia rhapontici SIs): smaller proportions of glucose and fructose | efficiency of the soluble enzyme, times that of the Erwinia and Klebsiella enzymes ([7]; intact cell assay, estimated): 6-38 times | product from glucose and fructose as substrates [8]: no product was detected | monosaccharides, share of the products ([9]; from pH 4 to 8): less than 20% | activity at 10° C., of activity at optimal temperature ([9]; purified SI): 15% | activity at 60° C. ([9]; purified SI): still active | isomaltulose production at pH 3 and pH 8 ([9]; purified SI): some isomaltulose was still produced | optimal pH for isomaltulose production ([9]; purified SI): 5 | time until all sucrose was converted ([9]; purified SI): ≤ 45 min | sucrose converted to isomaltulose (of consumed sucrose) ([9]; purified SI, complete conversion, remainder glucose and fructose): 91% | optimal temperature for isomaltulose production ([9]; purified SI, pH 6.0): 37 °C | specific activity for isomaltulose production ([9]; purified fresh His-tagged enzymes): 632 U mg^−1 protein | fresh enzyme efficiency for isomaltulose production retained ([10]; 6-month storage at −20° C., elution buffer with 50% glycerol): 100% | fresh enzyme efficiency for isomaltulose production retained ([10]; 15-day storage at room temperature, same buffer): 60% | hydrolysis of isomaltulose [11]: did not hydrolyse isomaltulose
